Experimental data as given in the nanobody polyreactivity screen of Harvey et al. (2022).

Assay: yeast display, Sf9 membrane polyspecificity reagent, FACS + sequencing; frameworks hold sequencing errors
Summary of the method: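 Sorting gates, low and high (top ~1%), were placed on anti-HA fluorescence to track expression and on streptavidin fluorescence to track reagent binding. A clone's polyreactivity label is taken from the gate it came out of. The reagent was 10% biotinylated, detergent-solubilized Sf9 membrane, applied for 1 hour at 4 °C to galactose-induced yeast display cells.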

Sequence	polyreactivity (PSR sort gate)
QVQLVESGGGLVQAGGSLRLSCAASGFTFYGYAMGWYRQAPGKERELVAAISSSGGRTYYADSVKGRFTISRDNAKNTVYLQMNSLKPEDTAVYYCAGDYTSRDYYYWGQGTQVTVSS	high polyreactivity
QVQLVESGGGLVQAGGSLRLSCAASGFIFGYNAMGWYRQAPGKERELVASITYRGGRTYADSVKGRFTISRDNAKNTVYLQMNSLKPEDTAVYYCAAVRHVYVGGFDYWGQGTQVTVSS	high polyreactivity
QVQLVDSGGGLVQAGGSLRLSCAASGNIFVGNAMGWYRQAPGKERELVAAIRRSGGTTYYADSVKGRFTISRDNAKNTVYLQMNSLKPEDTAVYYCAASRPYQGDYWGQGTQVTVSS	low polyreactivity
QVQLVESGGGLVQAGGSLRLSCAASGSTFDSYAMGWYRPAPGKERELVAAITDSGSSTYYADSVKGRFTISRDNAKNTVYLQMNSLKPEDTAVYYCATYDYHGWSYYRYDYWGQGTQVTVSS	low polyreactivity
QVQLVESGGGLVQAGGSLRLSCAASGRIFPAYVMGWYRQPPGKERELVATIDNGGGTYYADSVKGRFTISRDNAKNTVYLQMNSLKPEDTAVYYCARDPHVRWGLKMDYWGQGTQVTVSS	low polyreactivity
QVQLVESGGGLVQAGGSLRLSSAASGSTFGYYAMGWYRQAPGKERELVAVIRSRTGDTNYADSVKGRFTISRDNAKNTVYLQMNSQKPEDTAVYYCNAALWYGSTIYSYRYGYWGHGTQVTVSS	high polyreactivity
QVQLVESGGGLVQAGGSLRLSCAASGSIFYFNAMGWYRRAPGKERELVAGISARGGSTYYADSVKGRFTISRDHAKNTVYIQMNSLKPEDTAGYYCAAYGTTRSRKRAFAWWGYDYWGQGTQVTVSS	low polyreactivity
QVQLVESGGGLVQAGGSLRLSCAASGRIFYPYAMGWYREAPGKERELVAAITVRGGRTYYADSVKGRFTFSRDNAKNTVYLQMNSLKPEDTAVYYCAARRWGAYRHGYWGQGTQVTVSS	high polyreactivity
QVQLVESGGGLVQAGGSLRLSCAASGSTFYVYVMGGYRQAPGKERELVAAITSSGDITYYADSVKGRFTISRYNAKITVYLQMNSLIPEETAVYYCAASPFRRRYNGENDYWGQGTQVTGSS	high polyreactivity
QVQLVESGGGIVHAGGSLGLSCAASGRIFYSNAMGWYRQAPGKERELVAAISWNGGRTYYADSVKGRFTISRDNAKNTVYLQMKSLKPEDHAVYYCAVRYARQYYYRSGAYASRYLYNYWGQGTQVTVSS	high polyreactivity
QVQLEESGGGVVQAGGSLRLSCAASGRIFNYYTMGWYRQATGKERELVARINSSGSTNLRRLCEGALHNFTRQCEVYRLFTDEQPETGRYRVYYCNADTKRSSREYEYWGQGTQVTVSS	low polyreactivity
QVQLVESGGGLVQAGGSLRLSCAASGFTFYNYAMGWYRQAPGKERELVAVISRSGGRTKYADSVKGRFTISRDNAKNTVYLQMNSLKPEDTAVYYCAARPSPGYYAYRYAPAIHYDYWGQGTQVTVSS	high polyreactivity
QVQLVESGGGLVQAGGSLRLSCAASGNIFDTYVMGWYRQAPGKERELVAAITSDGGTYYADSVKGRFTSSRDNATNPVYLQMNSRQPEDTAVYYCAADTYYYPIHDYWGQGTQVTVSS	low polyreactivity
QVQLVESGGGLVQAGGSLRLSCAASGFTFDQNAMGWYRQAPGKERELVAAISVGGGSTYYADSVKGRFTISRDNAKNTVYLQMNSLKPEDTAVYYCAASYVYPASFHYYYWGQGTQVTVSS	high polyreactivity
QVQLVESGGGLVQAGGSLRLSCAASGSIFPAYAMGWYRQAPGKERELVAAITGSGGSTYYADSVKGRFTISRDNAKNTVYLQLNSLKPEDTAVYYCAATIRQFRRYDYWGQGTQVTVSS	low polyreactivity
QVQLVESGGGLVQAGGSLRLSCAASGSIFYRNAMGWYRQAPGKERELVAAITWSGVNTYYADSVKGRFTISRDNAKNTVYLQMNSLKPEDTAVYYCAVPSRYWLNRGFDYWGQGTQVTVSS	low polyreactivity
QAQLVESGGGLVQEGGSLRLSCAASGSIFYGYAMGWSRQAPGKERELVATIRFITGSTYYADSVKGRFTISRDNAKNTVYLQMNSLKPEDTAVYYCAAVYVGYYDNYDYWGQGTQVTVSS	low polyreactivity
QVHLVESGGGLVQAGGSLRLSCAASGSTFGYYTMGWYRQAPGKERELVAAISGSGDSTYYADSVKGRFTISRDNAKNTVYLQMNSLKPEDTAVYYCAKRYYKRYNYWGQGTQVTVSS	high polyreactivity
QVQLVESGGGLVQAGGSLRLSCAASGRTFWYYAMGWYRQAPGKERELVAAITSGGSTNYADSVKGRFTISRDNAKNTVYLQMNSLKPEDTAVYYCAVDGLGGREGYWGQGTQVTVSS	high polyreactivity
QVQLVESGGGLVQAGGRLRLSCAAYGSIFDFYAMGWYRQAPGKERELVAAISGSGGSTYYADSVKGRFTISRDNAKNTVYLQMNSLKPEDTEVYYCSYYYWGQGTQETVSS	low polyreactivity

Sequence	polyreactivity (PSR sort gate)
QVQLVDSGGGLVQAGGSLRLSCAASGSTFTYYAMGWYRPAPGKERELVASITTSGGDTNYADSVKGRFTISRDNAKKTVYLQRNSQKPEDTPLYYCNTTTDQHYGYCAAADADRKYDYWGQGTQVTVSS	low polyreactivity
QVQLVESGGGLVQAGGSLRLSCAASGSTFNKYAMGWYRQAPGKERELVAAISSSGGSTYYADSVKGRFTISRDNAKNTVYLQMNSLKPEDTAVYYCNARRTYSVPARRYYYWGQGTQVTVSS	high polyreactivity
QVQLVESGGGLVQAGGSLRLSCAASGSTFPVYDMGWYRQAPGKERELVAAITAGVSTNYADSVKGRFTISRDNAKNTVYLQMNSQKPEDTAVYYCAKDFGLLPIRDDYWGQGTQETVSS	low polyreactivity
QVQLVESGAGLVQAAGSLRLICASSGFILLDKAMGWYRQAPGKEREFVASINISGARTFYADSVKGRFTISRDTAKNTVYLQMNSLKPEDTAVYYCAKEPGWGRRSTTAYDYWGQGTQVTVSS	low polyreactivity
QVQLVESGGRIVQAGGSLRLSCAASGIIFYLYTMGWYRQAPGKERQFVADISSGTTTYYADSVKGRFTISRDNAKNTVYLQMNSLKPADSAVYYCAAQLFRELYWGQGTQVTVSS	high polyreactivity
QVQLVESGGGLVQAGGSLRLSCAASGRILSLYAMGWYRPPPGKERELVAAIRWSGSRTYYADSVKGRFTISRDNAKNTVYLQMNSLKPEDTAVYYCNAWYRLLRSSDYYWGQGTQVTVSS	high polyreactivity
QVQLVESGGGLVQAGGSLRLSCAASGSIFTKYAMGWYRQAPGKERELVAAISSSGGSTYYADSVKGRFTISRDNAKNTVYLQMNSLKPEDTAVYYCAAEAVYYRSWRYYYWGQGTQVTVSS	high polyreactivity
QVQLVESGGGLVQAGGSLRLSCAASGITFGFYAMGWYRQAPGKERELVASITWRGGSTYYADSVKGRFTISRDNAKNTVYLQMNSLKPEDTAVYYCAAEQYVFRPRAQEITTYDYWGQGTQVTVTS	high polyreactivity
QVQLVESGGGVVQAGCSLRISCAASGIFRKYAMGWYRQAPGKERELVAAITWGGGRTYYADSVKGRFTISRDNAKNTVYFQMNSLKPEDTAVYYCAAAKTGRGRGTTGYGYCGQGTQVTVSS	high polyreactivity
QVQLVESGGGLVQAGGSLRLSCAASGSIFHRNTMGWYRQAPGKERELVAAIRRGGSTYYADSVKGRFTISRDNAKNTVYLQMNSLKPEDTAVYYCAADFPGEYYYWGQGTQVTVSS	high polyreactivity
HLQLVESGGGLVQAGGSLRLSCAPSGRILRDYDMGWYRQAPGKERELVAAINWSDGSTYYADSVKGRFTISRDNAKNTVYLQMNSLKPDDTAVFYCAASRWRPLERGTSWLHDYWGQGTQVTVSS	low polyreactivity
QVQLVESAGGLVQAGGSLRLSCAASGFIFSRNAMGWYRQAPGKERELVAVISTSGGSTYYADSVKGRFTISRDNAKNTVYLQMNSLKPEDTAVYYCAARRTRGYEYWGKGTQVTVSS	high polyreactivity
QVQLVESGGGLVQAGGILRLSCAASGSIFEWYAMGWYRQAPGKEREFVAAINSGGSTYYADSVKGRFTISRDNAKNTVYLQMNSLKPEDTAVYYCNKVSYGYSTYGYWGQGTQVTVSS	low polyreactivity
QVQLVESGAGLVQAGGSLRLSCAASGRIFHWYAMGWYRQAPGKERELVATANTSYADSVKGRFTISRDNAKNTVYLQMNSLKPEDTAVYYCATVGPRGRSLGDYWGQVTQVTVSS	low polyreactivity
QVQHVESGGGLVQAGGSLRLSCAASGRIMARNAMGWYRQAPGKERELVADISYSGGRTYYADSVKGRFTISRDNSKNTVYFQMNRLKQEDTAVYYCADSRSSRTYHDDYWGQGTQVTVSS	high polyreactivity
QVQLVESGGGLVQAGGSLRLSCAASGLIFAKYAMGGYRQAPGKERELVAAISYSGGSTFYADSVKGRFTISRDNAKNTVYLQMNSLKPEDTAVYYCAARDSRVGYYWFVRKEYYYWGQGTQVTVSS	high polyreactivity
QVQLVESGGGLVQAGGSLRLSCAASGFILNKNVMGWYRQAPGKERELVAAITGSGGRTYYADSVKGRFSISRDNAKNTVYLQMNSLKPEDTAVYYCAARRPLVRYIMGYWGQGTQVTVSS	high polyreactivity
QVQLVESGGGLVQAGGSLRLSCAASGIIFRWYAMGWYRQAPGKERELVAAISRSGSSTYYADSVKGRFTISRDNAKNTVYLQMNSLKPEDTAVYYCNAEYQAPTEKGRYYYPWPYEYWGQGTQVTVSS	high polyreactivity
QVQLVESGGGLVQAAGSLRLSCAASGFIFQAYAMGWYRQAPGKERELVAAISSSGGSTYYADSVKGRFTISRDNAKYTVYLKRNILKPEDTAVYYCAARSRRVSLLSESYGYWGQGTQVTVSS	high polyreactivity
QVQLVESGGGLVQAGGSLSLSCAASGYIFSSNTMGWYRQAPGKERELVAGITASATITYYADSVKGRFTISRDNAKNTVYLQMNSLKPEDTAVYYCAADPVLGVFKFEYWGQGTQVTVSS	low polyreactivity
